According to patent US20050272050A1 (published 2005):

T1: full length human CD154 on stably transfected mouse fibroblasts (human, UniProt P29965 1-261)
T1 construct: whole, on cells; also called membrane CD154; hCD154
T1 sequence (looked up): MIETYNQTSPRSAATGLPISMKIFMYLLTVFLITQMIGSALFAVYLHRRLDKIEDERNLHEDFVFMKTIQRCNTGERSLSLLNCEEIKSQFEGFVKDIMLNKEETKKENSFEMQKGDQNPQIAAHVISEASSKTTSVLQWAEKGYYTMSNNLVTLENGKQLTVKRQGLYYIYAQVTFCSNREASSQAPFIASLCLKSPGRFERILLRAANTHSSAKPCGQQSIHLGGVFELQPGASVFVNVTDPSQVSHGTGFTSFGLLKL

B1: CD40 NJ3 splice variant (receptor)
chain: EPPTACREKQYLINSQCCSLCQPGQKLVSDCTEFTETECLPCGESEFLDTWNRETHCHQHKYCDPNLGLRVQQKGTSETDTICTCEEGWHCTSEACESCVLHRSCSPGFGVKQIATGVSDTICEPCPVGFFSNVSSAFEKCHPWTSCETKDLVVQQAGTNKTDVVCGESWTMGPGESLGRSPGSAESPGGDPHHLRDPVCHPLGAGLYQKGGQEANQ
notes: For ELISA and FACS it was expressed non-fused with baculovirus, secreted and purified from the supernatant on a G28-5 column; also called CD40 NJ3 variant; CD40 variant NJ3
B2: CD40 NJ1 splice variant (receptor)
chain: EPPTACREKQYLINSQCCSLCQPGQKLVSDCTEFTETECLPCGESEFLDTWNRETHCHQHKYCDPNLGLRVQQKGTSETDTICTCEEGWHCTSEACESCVLHRSCSPGFGVKQIATGVSDTICEPCPVGFFSNVSSAFEKCHPWTSCETKDLVVQQAGTNKTDVVCGESWTMGPGESLGRWELKGEMRHTGTLDGKKGRGGSLGVWYHSSATYLGSLGKSLPLS
notes: For ELISA and FACS it was expressed non-fused with baculovirus, secreted and purified from the supernatant on a G28-5 column; also called CD40 NJ1 variant; CD40 variant NJ1

Target: T1, full length human CD154 on stably …
Assay: flow cytometry on mouse fibroblasts transfected with human CD154, detected with PE-EA-5
Experimental: 10⁶ mouse fibroblasts (stably transfected with full length human CD154) were incubated with CD40 NJ1 (FIGS. 7-8) or CD40 NJ3 variants (FIGS. 9-11). All the proteins were incubated at a concentration of 1-50 μg/ml at 4° C. for 60 min in total volume of 100 μl (0.5×10^6 cells). […] Analysis was performed using BD FACsCalibur. A known CD40 soluble variant was used (in the form of a FC tagged protein) as a positive control for detecting binding to CD154 (U.S. patent application No. 60/547,422, hereby incorporated by reference as if fully set forth herein) (FIG. 17-18).
Briefly, the FACS protocol was as follows. Mouse fibroblasts were trypsinized, and washed twice in PBS; cells were centrifuged at 1500 rpm for 10 min between washes. Next, the cells were re-suspended in FACS buffer (0.2% BSA and 0.02% sodium azide diluted 1/10 in PBS) to give 5-10×10⁶ cells mL. Cells were placed in FACS test-tubes at a volume of 100 or 200 microliters per tube.
Next, 2 μL (1:50) […] non-blocking antibody (EA-5 mouse IgG1 PE-conjugated, obtained from Calbiochem) or controls (same isotype PE conjugated) were added to the tubes, and incubated for 30 min at 4° C. The process of washing was then repeated with 5 mL PBS. Next, 0.5 mL PBS was added to tubes, which were read in a FACS machine (BD FACSCalibur).

| Binder | binding result |
| --- | --- |
| B1 | binds |
| B2 | binds |
